According to article PMC8932917:

Biological target: Biotinylated FcγRIIIa (human) (UniProt P08637)
Assay: BLI

Chain of UniProt P08637 (P08637 21-186): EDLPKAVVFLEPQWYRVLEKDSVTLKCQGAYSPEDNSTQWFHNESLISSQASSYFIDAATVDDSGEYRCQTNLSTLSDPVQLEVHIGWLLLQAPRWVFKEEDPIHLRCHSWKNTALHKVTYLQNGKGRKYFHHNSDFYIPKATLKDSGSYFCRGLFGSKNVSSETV

fold larger kon than Ada: 3.5 fold
fold larger kon than Rtx: 4 fold
fold lower KD than Ada: > 20 fold
fold lower KD than Rtx: > 20 fold
fold smaller koff than Ada: 6 fold
fold smaller koff than Rtx: 5 fold
Substance: Mogamulizumab, anti-CCR4 humanized IgG1 (antibody)
